pKd: −log10 of the molar value.
How the values were obtained:
[1] = molecular target: MLL1 third plant homeodomain (PHD3) (UniProt Q03164); assay: ITC; conditions not given (table S1, fig. S2)
H3(1-13)K4me3 peptide = assay: ITC; conditions: NMR titrations: 20 mM KHPO4 pH 7, 40 mM KCl, 1 mM DTT, 289.15 K as printed (table S2 says 298.15 K for Kd); structures of complexes: 40 mM KCl, 20 mM KH2PO4 pH …
[2] = molecular target: Cyp33 RRM∆α/MLL1 PHD3 complex (UniProt Q9UNP9); assay: ITC; conditions not given (table S1, fig. S2)
[3] = molecular target: Histone H3 H3K4me3 (Homo sapiens) (UniProt P68431); conditions: cited from earlier work

Chain of MLL1 third plant homeodomain (PHD3) (Q03164 1564-1627): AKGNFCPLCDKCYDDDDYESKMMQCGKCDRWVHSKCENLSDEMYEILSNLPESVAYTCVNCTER
Chain of MLL1 PHD3-BRD (Q03164 1566-1784): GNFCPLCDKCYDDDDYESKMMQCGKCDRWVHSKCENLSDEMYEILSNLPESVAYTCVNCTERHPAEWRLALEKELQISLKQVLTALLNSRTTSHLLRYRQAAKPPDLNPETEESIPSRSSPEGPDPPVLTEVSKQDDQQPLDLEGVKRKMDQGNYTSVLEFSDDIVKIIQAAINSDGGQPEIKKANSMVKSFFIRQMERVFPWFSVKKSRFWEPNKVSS

Substance	pKd [1]	further results
Cyp33 RNA recognition motif (RRM) with the C-terminal extension (α3 helix) (from UniProt Q9UNP9 1-114) (domain or fragment)	5.34	–
Cyp33 RK86-88A double mutant	5.15	–
Cyp33 K83A mutant	5.15	–
UAAUGUUAAUGUUAAUGUUAAUGU [4x UAAUGU repeat RNA]	–	pKd (H3(1-13)K4me3 peptide): 4.52
Cyp33 W101A, L102A, F105A triple mutant (Cyp33-WLF)	5.15	–
Cyp33 KRK83-88A triple mutant	5.15	–
Histone H3 lysine N6-trimethylated peptide (H3K4me3) (from UniProt P68431 2-14)	–	pKd [2]: 4.62
MLL1 PHD3-BRD (from UniProt Q03164)	–	pKd [3]: 5.40

Source: PMC10115415
